Assay: yeast display, Sf9 membrane polyspecificity reagent, FACS + sequencing; frameworks hold sequencing errors
How it was run: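 A nanobody's polyreactivity label depends on the gate it was sorted from. Yeast display cells were stained with 10% biotinylated, detergent-solubilized Sf9 membrane reagent for 1 hour at 4 °C, enriched on streptavidin microbeads and sorted by FACS. The low and high (top ~1%) gates were set on anti-HA fluorescence for expression and streptavidin fluorescence for reagent binding.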
With “QVQLQESGGRMVQAGGSLRLSCAASGYISWADYKGWYRQAPGKERELVAGIGYGSTTYYADSVKGRFTISRDNAKNTSYLQMNSLKPEDTAVYYCAVGWYRDSAYKYWGQGTQVTVSS” the “polyreactivity (PSR sort gate)” value was “low polyreactivity”. For “QVQLQESGGVQAGGSLRLSCAASGYISRSDVKGWYRQAPGKERELVATINNGTITYYADSVKGRFTISRDNAKNTVYLQMNSLKPEDTAVHYCAVVQSDTDSLYYWGQGTQVTVSS”, the “polyreactivity (PSR sort gate)” value was “low polyreactivity”. In the case of “QVQLQESGGVQVQAGGSLRLSCAASGYISTHYFMGWYRQAPGKDREFVAGISNGSITNYADSVKGRFTISRDNARNTVYLQMNSLKPEDTAVYYGAAYEWTYVRFGYWGQGTLVTVSS”, the “polyreactivity (PSR sort gate)” value is reported as “high polyreactivity”. In the case of “QVQLQESGRGLVQAGGSLRLSCAASGYISYFVGMGWYRQAPGKEREFVASIADGSNTYYADSVKGRFTISRDNAKNTVCLQRNSLKPEVTAVYYCAVEDSWTYRFDYWGEGTQVTVSS”, the “polyreactivity (PSR sort gate)” value is reported as “high polyreactivity”. In the case of “QVQLQESGRRPGAAGGSPRMSCAASGNIFWVAVMGRYRQAPGKERELVASIGFGCTTYYADSVKCRFTISRDNAKNTVFLQLISLKPEDTAVYYCAAPLYDWGELDDWGQGTQVPVSS”, the “polyreactivity (PSR sort gate)” value is reported as “low polyreactivity”. With “QVQLQESGRRPGAAGGSPRMSCAASGNIFWVAVMGRYRQAPGKERELVASIGFGCTTYYADSVKCRFTISRDNAKNTVYLQMISLQPEDTAVYYCAAPHYDWGELDYWGQGTQVPVSS” the “polyreactivity (PSR sort gate)” value was “low polyreactivity”. For “QVQLQESRGGLVQEGGSLRLSSAASGNISPPAHMGWYRPAPGKQRELVASIGNGRTTNYADSVKGRFTISRHNANNTVYLQMYSLKPDETAVYYCSAVRYEYNPYDYWGQGTQVTVSS”, the “polyreactivity (PSR sort gate)” value was “low polyreactivity”. With “QVQLQESRGGQVQEGGSLRLSCAASGNISPPADMGWYRQAPGKERELVASIGTGGTTNYADSVKGRFTISRDNAKNTVYLQMKSLKPDDTAVYYCAAVRFEYNPYDYWGQGTQVTVSS” the “polyreactivity (PSR sort gate)” value was “low polyreactivity”. With “QVQLQESVGGLVQAGGSLRLSCAASGNIFPTDRMGWYRQAPGKELEFVATNSHGGSTNYADSVKGRFTISRDNAKNTVYLQMNSLKPEDTAVYYCAVWSLGRWRHYYWGQGTQVTVSS” the “polyreactivity (PSR sort gate)” value was “low polyreactivity”. For “QVQLQESVGGLVQAGGSLRLSCAASGTIFRISDMGSYRQAPGKEREFVAAITYGANTYYADSGKGRFTISRDNAKNTVYLQMNSLKPEDTAVYYCAVPPVKETILDYWGQGTQVTVSS”, the “polyreactivity (PSR sort gate)” value was “low polyreactivity”. With “QVQLQESVGGLVQAGGSLRLSCAATGTIFTDRFMGWYRQAPGKERELVAGISQGTSTNYADSVKGRFTISRDNAKNTVYLQMNSLKPEDTAVYYCAADLSTGNTLPYWGQGTQVTVSS” the “polyreactivity (PSR sort gate)” value was “high polyreactivity”. In the case of “QVQLQESVVGLVQAGGSLRLSCAASGNIIPTDRMGWYRQAPGKELEFVATISHGGSTNYADSVKGRFTISRDNAKNTVYLQMNSLKPEDTAVYYCAVWSLGSWRHYYWGQGTQVTVSS”, the “polyreactivity (PSR sort gate)” value is reported as “low polyreactivity”. For “QVQLQGSGGGLVQAGGSLRLSCAASGYIFQNVPMGWNRQAPCKERELVAGIDNGTSTNYADSVNGRFTISRDNAKNTVYLQMNSLKPEDTAVYYCAAAGQADDTLGYWGQGTQVTVSS”, the “polyreactivity (PSR sort gate)” value was “low polyreactivity”. In the case of “QVQLQGSGGGLVQAGGSLRLSCAASGYIFQNVPMGWNRQAPGKERELVAGIDNGTSTNYADSVNGRFTISRDNAKNTVYLQMNSLNPVDTAVYYCAAAGQADDTLGYWGQGTQVTVSS”, the “polyreactivity (PSR sort gate)” value is reported as “low polyreactivity”. In the case of “QVQLQGSGGGLVQSGGSLRLSCAASGKIFDADIMGWYRQAPGKESELVASITHGGSTNYADSVKGRFTISRDNAKNNVYLQMNSLIQEDTAVYYCAAIAYPDIPTYFDYDSDCFYWSQGTQVTVSS”, the “polyreactivity (PSR sort gate)” value is reported as “high polyreactivity”. In the case of “QVQLQLSGGDLVQAGRSLRLSCAASGTIYGLTSMGWYRQAQAKEREFVAAITDGGKTNYADSVKGRFTISRDNAKNTVYLQMIRLKPEDTAVYYCAVLFSDDAYYAYWGQGTQVTVSS”, the “polyreactivity (PSR sort gate)” value is reported as “low polyreactivity”. In the case of “QVQLQVRGGDLVQAGGSLRLSCAASGTIYRLTTMGWYRQAPGKEREFVAAITDGGNTNYADSVKGRFTISRDNAKNTVYLQMICLKPEDTAVYYCAVLFSDDAYYAYWGQGTQVTVSS”, the “polyreactivity (PSR sort gate)” value is reported as “low polyreactivity”. For “QVQLQVSGGHLVQAGGSLRLSCAASGTIYGLTSMGWYSQAPGKEREFVAAITDGGNTNYADSVKGRFTISRDNAKNTVYLQMISLKPEDTSVYYCAFLFSDDAYFAYWGQGTQVTLSS”, the “polyreactivity (PSR sort gate)” value was “low polyreactivity”.
